PMC3868223 (Cytokine, 2013)

Target: T1, IFN-γR1 (ligand-binding chain of the interferon-gamma receptor), fused to a fluorescent protein (UniProt P15260 18-489)
T1 sequence (looked up): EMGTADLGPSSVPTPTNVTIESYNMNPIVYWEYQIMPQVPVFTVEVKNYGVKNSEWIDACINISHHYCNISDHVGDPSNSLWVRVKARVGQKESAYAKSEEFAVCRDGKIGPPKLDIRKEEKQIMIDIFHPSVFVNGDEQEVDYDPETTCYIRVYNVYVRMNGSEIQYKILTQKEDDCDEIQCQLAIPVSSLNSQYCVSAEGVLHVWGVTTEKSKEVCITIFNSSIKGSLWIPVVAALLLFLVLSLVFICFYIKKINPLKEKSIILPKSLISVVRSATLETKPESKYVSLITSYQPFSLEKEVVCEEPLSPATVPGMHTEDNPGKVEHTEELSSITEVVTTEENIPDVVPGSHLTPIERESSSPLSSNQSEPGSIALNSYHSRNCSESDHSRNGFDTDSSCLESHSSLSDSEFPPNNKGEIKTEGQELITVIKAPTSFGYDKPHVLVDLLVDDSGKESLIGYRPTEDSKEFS
Experiment: FRET or BRET

B1: IFN-γR2 (accessory chain of the interferon-gamma receptor), fused to a fluorescent protein (receptor, UniProt P38484 22-337, looked up)
chain: APPDPLSQLPAPQHPKIRLYNAEQVLSWEPVALSNSTRPVVYQVQFKYTDSKWFTADIMSIGVNCTQITATECDFTAASPSAGFPMDFNVTLRLRAELGALHSAWVTMPWFQHYRNVTVGPPENIEVTPGEGSLIIRFSSPFDIADTSTAFFCYYVHYWEKGGIQQVKGPFRSNSISLDNLKPSRVYCLQVQAQLLWNKSNIFRVGHLSNISCYETMADASTELQQVILISVGTFSLLSVLAGACFFLVLKYRGLIKYWFHTPPSIPLQIEEYLKDPTQPILEALDKDSSPKDDVWDSVSIISFPEKEQEDVLQTL
fold higher apparent affinity than IFN-γR1 with DAF-ToFP: ~7 fold
